Data on one molecule can be found in US10603364B2, “Lysosomal targeting and uses thereof” (Shire Human Genetic Therapies, Inc., priority 2014, dated 2020).

Data set [1] deals with Naglu KO mice. Put plainly: Sanfillipo B specific biomarkers in brain by LC/MS. Type of data set: in vivo. Conditions: intrathecal, 520 mg/kg brain, especially 2× weekly and 3× weekly. How it is done:
(§1) To evaluate the in vivo activity of Naglu-SPP and its efficacy as a therapeutic for the treatment of lysosomal storage diseases, particularly San B, Naglu-SPP was administered to Naglu KO mice via intrathecal injection. Intrathecal administration of Naglu-IGFII served as a positive control. The experimental conditions used for this assay are described in Tables 10 and 11 below.
Using the same LC/MS technology as used for the quantification of heparin sulfate (see above), the presence of Sanfillipo B specific biomarkers in brains of treated KO mice were evaluated. Naglu deficiency causes the accumulation of certain heparin sulfate degradation products (presented in FIGS. 13A-C) which are natural substrates of Naglu. These biomarkers are the most relevant indications for Naglu deficiency.

The test system of data set [2] is SORT overexpressing cells. The data set is described as follows: Immunofluorescence microscopy of cellular entry and lysosomal targeting (Naglu / Lamp-1). Type of data set: cell-based. How it is done:
Studies were carried out using immunofluorescence microscopy to evaluate cellular entry and lysosomal targeting. For these studies, SORT overexpressing cells were treated with vehicle control or Naglu-SPP and then fixed and prepared for staining. Both vehicle control (FIG. 6A) and Naglu-SPP (FIG. 6B) treated cells were stained using antibodies specific for human Naglu and Lamp-1, a lysosome-specific protein biomarker.

Data set [3] concerns SORT1 overexpressing cells. The data set is described as follows: Cellular uptake in Sortilin overexpressing cells (intracellular Naglu enzyme activity). The data set is classed as cell-based. As to conditions: absence of Neurotensin. How it is done:
A cell line was established overexpressing SORT1, using standard technologies known in the art. […] After a specified period of time, the supernatant was removed and the cells were washed repeatedly. Then, cells were lysed and each sample was assayed for Naglu enzyme activity.

The test system of data set [4] is Naglu KO mice. Put plainly: Immunohistochemical staining of Lamp-1, GFAP and Iba-1 in brain and liver. Type of data set: in vivo. Conditions: intrathecal. How it is done:
as §1
The lysosomal targeting of Naglu-SPP and Naglu-IGFII was further examined by immunohistochemical analysis. Tissue samples were collected, fixed in 10% NBF and processed for paraffin embedding. For each tissue assayed, 5 μm paraffin sections was subjected to immunostaining using antibodies against lamp lysosomal associated membrane protein 1 (Lamp-1), glial fibrillary acidic protein (GFAP) and the ionized calcium-binding adapter molecule 1 (Iba-1).

Data set [5] concerns wild-type rats. The data set is described as follows: Immunohistochemistry of Naglu protein in brain tissue after intrathecal administration. The data set is classed as in vivo. How it is done:
To evaluate biodistribution of the SORT1-binding Naglu fusion proteins, an in vivo study was conducted using wild-type rats subjected to intrathecal administration of vehicle control (PBS), rhNaglu, Naglu-IGFII, Naglu-SPP, Naglu-SapDC or Naglu-tPRGN. Details of the experimental design are provide in Table 9 below. Previous experiments had shown that Naglu-IGFII but not rhNaglu penetrates into brain tissue and is targeted to lysosomes after intrathecal injection. Accordingly, rhNaglu and Naglu-IGFII were utilized in this study as negative and positive controls, respectively.
Rats were sacrificed either 4 or 24 hours post intrathecal administration of the respective fusion protein. Brain tissue samples were collected, fixed in 10% NBF and processed for paraffin embedding. 5 μm paraffin sections from each tissue assayed were subjected to immunostaining using an anti-human Naglu antibody.

B1: Naglu-SPP: Fusion protein of human Naglu and SORT1 propeptide (SPP) via GAG3 linker; SEQ ID NO:17 (full-length), SEQ ID NO:22 (protein)
chain: MEAVAVAAAVGVLLLAGAGGAAGDEAREAAAVRALVARLLGPGPAADFSVSVERALAAKPGLDTYSLGGGGAARVRVRGSTGVAAAAGLHRYLRDFCGCHVAWSGSQLRLPRPLPAVPGELTEATPNRYRYYQNVCTQSYSFVWWDWARWEREIDWMALNGINLALAWSGQEAIWQRVYLALGLTQAEINEFFTGPAFLAWGRMGNLHTWDGPLPPSWHIKQLYLQHRVLDQMRSFGMTPVLPAFAGHVPEAVTRVFPQVNVTKMGSWGHFNCSYSCSFLLAPEDPIFPIIGSLFLRELIKEFGTDHIYGADTFNEMQPPSSEPSYLAAATTAVYEAMTAVDTEAVWLLQGWLFQHQPQFWGPAQIRAVLGAVPRGRLLVLDLFAESQPVYTRTASFQGQPFIWCMLHNFGGNHGLFGALEAVNGGPEAARLFPNSTMVGTGMAPEGISQNEVVYSLMAELGWRKDPVPDLAAWVTSFAARRYGVSHPDAGAAWRLLLRSVYNCSGEACRGHNRSPLVRRPSLQMNTSIWYNRSDVFEAWRLLLTSAPSLATSPAFRYDLLDLTRQAVQELVSLYYEEARSAYLSKELASLLRAGGVLAYELLPALDEVLASDSRFLLGSWLEQARAAAVSEAEADFYEQNSRYQLTLWGPEGNILDYANKQLAGLVANYYTPRWRLFLEALVDSVAQGIPFQQHQFDKNVFQLEQAFVLSKQRYPSQPRGDTVDLAKKIFLKYYPRWVAGSWGAPGGGGGAAAAAGGGGGGAPGGGGGAAAAAGGGGGGAPGGGGGAAAAAGGGGGGAPQDRLDAPPPPAAPLPRWSGPIGVSWGLRAAAAGGAFPRGGRWRR
On to B1, for which the “accumulation of three GAG cleavage products (San B biomarkers) in brain” value in data set [1] is listed as “dramatic decrease”. The “intracellular localization of Naglu fluorescence (co-localization with Lamp-1)” value in data set [2] is “localized predominantly within lysosomal vesicles”. In data set [3], the Bmax of binding/uptake was 1260 nmol/h/mg and the “cellular internalization (intracellular Naglu activity)” value is “effectively internalized”. For the same molecule, the “Lamp-1 immunostaining in brain (cerebral cortex, cerebellum, thalamus, striatum, white matter)” value in data set [4] (2× weekly and 3× weekly) is on record as “decrease”. Besides, in data set [4] (three weekly deliveries), the “Lamp-1 immunoreactivity in liver” value is “reduced significantly”. Also, in data set [4] (three weekly injections), the “GFAP staining in cerebral cortex and cerebellum (astrocytes)” value is reported as “reduced signal”; the “Iba-1 staining in cerebral cortex and cerebellum (microglial cells)” value was “microglial cells are reduced in size and have a smaller number of processes”. The “Naglu immunostaining in cerebral cortex / brain parenchyma” value in data set [5] (4 and 24 hours post treatment) is “positive staining”. In addition, the “Naglu immunostaining in cerebellum and hippocampal region” value in data set [5] (24 hours post injection) is on record as “strong Naglu signal”.
